# Data from US7291673B2, “Conjugate addition reactions for the controlled delivery of pharmaceutically active compounds” (Eidgenossiche Technische Hochschule Zurich, priority 2000, dated 2007).
# Non-standard residues stand in square brackets, D forms with d. Residues, ends and D or L forms follow the SMILES beside them. No end group written: not given here.
# Key:
# [1] = Water solubility of peptide; format: physicochemical
# Description: The peptide […] (SEQ ID NO: 58) was designed to be sensitive to hydrolysis by the enzyme plasmin, to contain more than one thiol (cysteine) for addition reaction with conjugated unsaturated groups, and to be very water soluble. The peptide was synthesized according to the methods described above. The peptide was extremely water soluble, up to at least 120 mg/ml.
# [2] = cited from earlier work
# [3] = test system: human umbilical vein endothelial cells; assay: Endothelial cell spreading on photopolymerized PEG gels containing peptides; format: cell-based; conditions: 400 cells per mm^2; normal cell culture medium
# Description: Polyethylene glycol diacrylate of mol. wt. 8000 (230 mg/ml) was allowed to dissolve in HEPES buffered saline (10 mmol HEPES, Sigma, 8 g/L NaCl, pH 7.4) for one hour. Triethanolamine (Aldrich, 15.3 μl/ml) was added, and the pH of the solution was adjusted to pH 8 with 6 N HCl. Cysteine containing peptides were dissolved in 116.5 μl of HEPES buffered saline, and added to 870 μl of the PEG solution with vortexing. After 5 minutes, 3.5 μl of N-vinyl pyrrolidone and 10 μl of a 10 mM solution of Eosin Y were added, followed by vortexing. Gels were formed by exposure to light at 75 mW/cm^2 for one minute (Cermax Xenon Lightsource, transmitting light between 470 and 520 nm; ILC Technology, Sunnyvale, Calif., USA). Gels were allowed to swell in Tris buffered saline, pH 7.4 (4.36 g Tris HCl, 0.64 g Trizma base, 8 g NaCl, 0.2 g KCl per 1 L, all from Sigma) for 36 hr.
# PEG gels were prepared as described above, using the peptide […]. Most cells have receptors that recognize the sequence GRGDSPG (SEQ ID NO: 74), and cells will interact with surfaces displaying immobilized RGD containing peptides. […] Cells were seeded onto the gels at a concentration of 400 cells per mm^2, and the number of spread cells per area were counted at different times (see FIG. 6). […]
# [4] = test system: Human foreskin fibroblasts; assay: Fibroblast adhesion and spreading on conjugate addition gels; format: cell-based; conditions: 6 hours post-seeding; RGD peptide on one of every 12 acrylates
# Description: Conjugate addition gels were made with 0.1 g/ml PEG-2500-3A and 1.1 acrylates per sulfhydryl in […]. The gels were swollen for 24 hours in Dulbecco's modified Eagle's medium (some in serum-free conditions and some in 10% fetal bovine serum) containing 1% antibiotic and antimycotic agents. Human foreskin fibroblasts (passage 7; passaged with trypsin/EDTA) were seeded onto the gels. […] The cells became increasingly clumped together. The cellular behavior was independent of serum in the medium. Control cells seeded on tissue culture treated polystyrene spread normally.
# Conjugate addition gels were made with PEG-2500-3A, […], and an RGD-containing peptide ([…]) incorporated in a pendant fashion. The gels were made with 0.1 g PEG-2500-3A/ml and 1.1 acrylates per sulfhydryl in […]. The gels were swollen for more than 36 hours in Dulbecco's modified Eagle's medium (some in serum-free conditions and some in 10% fetal bovine serum) containing 1% antibiotic and antimycotic agents. When the RGD peptide was incorporated on one of every 12 acrylates of the PEG-2500-3A, human foreskin fibroblasts (passage 8; passaged by trypsin/EDTA) adhered to the gels (both those swollen in serum-free conditions and those in serum-containing medium). At 6 hours post-seeding, the cells were uniformly distributed over the gel surface, and approximately 50% of the seeded cells were spread (in both medium conditions). […]
# [5] = biological target: plasmin (Homo sapiens, UniProt P00747); assay: Plasmin stability of peptides by analytical C18 HPLC; format: biochemical; conditions: 37° C.; plasmin at 1/1000 the peptide concentration
# From the text: Analytical C18 HPLC (linear acetonitrile gradient over 0.1% TFA in water) was used to confirm the relative plasmin-stability of GCY-DLys-N-DArg-DCG. The following samples were run: plasmin; […]; plasmin+[…]; GCY-DLys-N-DArg-DCG; and plasmin+GCY-DLys-N-DArg-DCG.
# [6] = biological target: T1, Collagenase (Matrix metalloproteinase I) (Homo sapiens, UniProt P03956); conditions: cited from earlier work
# T1 sequence (P03956 100-469): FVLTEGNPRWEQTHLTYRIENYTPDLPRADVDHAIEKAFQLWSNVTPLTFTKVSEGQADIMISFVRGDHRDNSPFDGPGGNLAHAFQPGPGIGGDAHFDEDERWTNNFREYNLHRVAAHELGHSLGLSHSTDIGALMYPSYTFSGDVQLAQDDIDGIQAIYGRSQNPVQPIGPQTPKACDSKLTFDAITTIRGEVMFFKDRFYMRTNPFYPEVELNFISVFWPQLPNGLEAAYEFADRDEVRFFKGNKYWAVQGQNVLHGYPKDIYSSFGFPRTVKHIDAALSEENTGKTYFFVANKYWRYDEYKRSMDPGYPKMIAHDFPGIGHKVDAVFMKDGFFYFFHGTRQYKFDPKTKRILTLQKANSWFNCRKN
# [7] = Dissolution of albumin particles in PEG solutions; format: physicochemical
# From the text: For the gels in which controlled release was observed, protein particles could be seen within the gels for the entire period of release. For all gels, the disappearance of protein particles from the gel was coincident with the completion of delivery of greater than 90% of the protein in the gel. Thus, the solubility of bovine serum albumin in PEG-containing solutions was likely the most important factor in realizing controlled release of the protein. When a solution containing dissolved albumin was mixed with a solution containing dissolved PEG, the albumin precipitated, dependent upon the concentrations and the molecular weight of the PEG. Similarly, when particles of bovine serum albumin were added to a PEG solution, the kinetics of dissolution of the albumin were strongly affected by the presence of PEG. The albumin solids completely dissolved in 50 mM PBS buffer, pH 7.4 in three minutes in the absence of PEG. With 10% PEG molecular weight 8000 in solution, the time to dissolution of the albumin particles increased to six minutes. […] With 20% PEG molecular weight 8000, the protein particles dissolved to form a second liquid phase within one hour. This was presumably a true coacervate with one protein-rich, polymer-poor phase, and one polymer-rich, protein-poor phase.
# Chain of plasmin (P00747 581-810 limits assumed, species assumed): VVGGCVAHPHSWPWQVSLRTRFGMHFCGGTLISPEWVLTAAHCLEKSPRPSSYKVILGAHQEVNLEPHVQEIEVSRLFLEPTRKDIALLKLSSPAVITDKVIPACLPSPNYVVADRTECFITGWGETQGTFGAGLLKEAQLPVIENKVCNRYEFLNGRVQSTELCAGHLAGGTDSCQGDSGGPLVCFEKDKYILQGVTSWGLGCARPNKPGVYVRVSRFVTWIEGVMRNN
# Chain of plasmin (P00747 97-580 partner limits assumed, species assumed): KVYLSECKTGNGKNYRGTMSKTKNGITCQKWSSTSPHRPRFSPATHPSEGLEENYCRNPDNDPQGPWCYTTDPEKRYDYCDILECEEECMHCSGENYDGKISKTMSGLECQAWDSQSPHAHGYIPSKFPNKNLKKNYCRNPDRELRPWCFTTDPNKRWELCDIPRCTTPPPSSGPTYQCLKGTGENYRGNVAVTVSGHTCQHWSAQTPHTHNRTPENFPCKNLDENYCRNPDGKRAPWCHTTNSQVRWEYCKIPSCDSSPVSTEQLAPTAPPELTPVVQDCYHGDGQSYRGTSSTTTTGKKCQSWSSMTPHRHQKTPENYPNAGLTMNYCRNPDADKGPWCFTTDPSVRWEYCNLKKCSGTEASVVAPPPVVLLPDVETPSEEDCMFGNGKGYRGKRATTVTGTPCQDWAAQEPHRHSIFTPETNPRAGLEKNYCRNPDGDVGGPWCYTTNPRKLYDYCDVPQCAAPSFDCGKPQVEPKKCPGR
compound,measurement,setting,value
N=C(N)NCCC[C@H](NC(=O)[C@H](CC(N)=O)NC(=O)[C@H](CCCCN)NC(=O)[C@H](Cc1ccc(O)cc1)NC(=O)[C@H](CS)NC(=O)CN)C(=O)N[C@@H](CC(=O)O)C(=O)N[C@@H](CS)C(=O)NCC(=O)O (H-GCYKNRDCG-OH; N-terminus and C-terminus assumed),solubility,[1],≥ 120 mg/mL
NC(=O)C[C@H](N)C(=O)O [asparagine],pK of alpha amine,[2]; alpha amine of amino acid,8.8
NCCCC[C@H](N)C(=O)O [lysine],pK of side chain epsilon amine,[2]; side chain epsilon amine,10.80
GCGYGRDGSPG (Based on Homo sapiens),cell spreading on PEG gels containing peptide,[3],has no biological activity
GCGYGRGDSPG (not fully specified) [RGD-containing adhesion peptide incorporated into gels in a pendant fashion],seeded cells spread,[4],approximately 50%
same,cell spreading on PEG gels containing peptide,[3],Cells could only spread on gels that contained the peptide
GCY-DLys-N-DArg-DCG (GCY[dK]N[dR]DCG; cysteine pairing not given here),degradation of peptide by plasmin,[5],unaffected by the plasmin at 24 hours
GPQGIAGQ,kcat/Km relative to that of PQGIAG,[6],100% (normal)
GPQGIASQ,kcat/Km relative to that of PQGIAG,[6],130% (fast)
GPQGIFGQ,kcat/Km relative to that of PQGIAG,[6],>300% (faster)
GPQGIWGQ,kcat/Km relative to that of PQGIAG,[6],>700% (very fast)
GPQGRAGQ,kcat/Km relative to that of PQGIAG,[6],<5% (very slow)
GPQGVAGQ,kcat/Km relative to that of PQGIAG,[6],9% (slower)
GPVGIAGQ,kcat/Km relative to that of PQGIAG,[6],30% (slow)
"albumin: bovine serum albumin (Cohn fraction V), model protein",time to complete dissolution of albumin solids,"[7]; 50 mM PBS buffer, pH 7.4, absence of PEG",three
same,time to dissolution of albumin particles,[7]; 10% PEG molecular weight 8000,six
same,time to dissolve into a second liquid phase,[7]; 20% PEG molecular weight 8000,one
same,dissolution of protein,[7]; 30 or 40% PEG molecular weight 8000,did not dissolve after seven days
